The values below come from the Immune Epitope Database (IEDB).

The target of experiment [1] is HLA-A*02:01. Briefly: IEDB peptide-MHC binding, purified MHC/competitive/radioactivity; ≥ and ≤ were set here for values at or beyond the usual limits of such assays.
The target in experiment [2] is HLA-B*07:02. Briefly: IEDB peptide-MHC binding, purified MHC/competitive/fluorescence; ≥ and ≤ were set here for values at or beyond the usual limits of such assays.
For experiment [3], the target named is HLA-A*24:03. Briefly: IEDB peptide-MHC binding, purified MHC/direct/fluorescence; filed as Kd, often an IC50 or EC50 that approximates it; ≥ and ≤ were set here for values at or beyond the usual limits of such assays.
Experiment [4] concerns the target HLA-A*23:01. Described as above.
The target in experiment [5] is HLA-A*11:01. Briefly: IEDB peptide-MHC binding, purified MHC/competitive/fluorescence; ≥ and ≤ were set here for values at or beyond the usual limits of such assays. Particulars: source organism: Vaccinia virus.
Experiment [6] deals with HLA-A*03:01. The experiment is described as above.
Experiment [7] addresses HLA-B*40:01. Put plainly: IEDB peptide-MHC binding, purified MHC/competitive/fluorescence; filed as Kd, often an IC50 or EC50 that approximates it; ≥ and ≤ were set here for values at or beyond the usual limits of such assays.
Experiment [8] has as its target HLA-A*24:03. The experiment is described as above.
In experiment [9] the target is HLA-A*26:01. Described as above.
Experiment [10] has as its target HLA-B*57:01. The experiment is described as above.
Experiment [11] deals with HLA-B*27:03. The description is as above.
For experiment [12], the target named is HLA-B*15:17. The description is as above.
Experiment [13] deals with HLA-B*18:01. Described as above.
Experiment [14] concerns the target HLA-A*02:01. The experiment is described as above.
The target in experiment [15] is HLA-B*39:01. The description is as above.
Experiment [16] concerns the target HLA-B*15:01. Described as above.
Experiment [17] addresses HLA-B*51:01. The description is as above.
Experiment [18] addresses HLA-B*46:01. The experiment is described as above.
The target in experiment [19] is HLA-A*01:01. Put plainly: IEDB peptide-MHC binding, purified MHC/direct/fluorescence; filed as Kd, often an IC50 or EC50 that approximates it; ≥ and ≤ were set here for values at or beyond the usual limits of such assays. Particulars: source organism: Reston ebolavirus - Reston.
The target in experiment [20] is HLA-C*05:01. The experiment is described as above.
The target in experiment [21] is HLA-B*07:02. Put plainly: IEDB peptide-MHC binding, purified MHC/competitive/fluorescence; filed as Kd, often an IC50 or EC50 that approximates it; ≥ and ≤ were set here for values at or beyond the usual limits of such assays.
The target of experiment [22] is HLA-B*58:01. Described as above. Conditions: source organism: Escherichia coli.
The target in experiment [23] is HLA-A*24:02. Put plainly: IEDB peptide-MHC binding, purified MHC/competitive/fluorescence; ≥ and ≤ were set here for values at or beyond the usual limits of such assays. Conditions: source organism: Vaccinia virus Copenhagen.
The target of experiment [24] is HLA-A*69:01. Put plainly: IEDB peptide-MHC binding, purified MHC/competitive/fluorescence; filed as Kd, often an IC50 or EC50 that approximates it; ≥ and ≤ were set here for values at or beyond the usual limits of such assays. Particulars: source organism: Influenza A virus (A/Yokohama/22/2002(H1N2)).
For experiment [25], the target named is HLA-A*01:01. The description is as above. Conditions: source organism: Influenza A virus (A/Yokohama/22/2002(H1N2)).
The target of experiment [26] is HLA-A*02:12. Briefly: IEDB peptide-MHC binding, purified MHC/direct/fluorescence; filed as Kd, often an IC50 or EC50 that approximates it; ≥ and ≤ were set here for values at or beyond the usual limits of such assays. Conditions: source organism: Influenza A virus (A/England/654/2007(H1N1)).
Experiment [27] concerns the target HLA-A*29:02. The description is as above. Particulars: source organism: Influenza A virus (A/England/654/2007(H1N1)).
The target in experiment [28] is HLA-A*02:11. Described as above. Conditions: source organism: Influenza A virus (A/England/654/2007(H1N1)).
The target of experiment [29] is HLA-A*68:02. The description is as above. Particulars: source organism: Influenza A virus (A/England/654/2007(H1N1)).
Experiment [30] concerns the target HLA-A*02:19. The experiment is described as above. Particulars: source organism: Influenza A virus (A/England/654/2007(H1N1)).
The target in experiment [31] is HLA-A*03:01. The description is as above. Conditions: source organism: Influenza A virus (A/England/654/2007(H1N1)).
In experiment [32] the target is HLA-A*02:16. The experiment is described as above. Conditions: source organism: Influenza A virus (A/England/654/2007(H1N1)).
Experiment [33] deals with HLA-A*02:03. The experiment is described as above. Particulars: source organism: Influenza A virus (A/England/654/2007(H1N1)).
Setting [34] is: source organism: Human papillomavirus 16.
Setting [35] is: source organism: Vibrio vulnificus CMCP6.
The mark [36] stands for this setting: source organism: Vaccinia virus.
Setting [37] is: source organism: Escherichia coli.
The mark [38] stands for this setting: source organism: Reston ebolavirus - Reston (1989).
[39] abbreviates: source organism: Zaire ebolavirus.
The mark [40] stands for this setting: source organism: Salmonella enterica subsp. enterica serovar Typhi.
Setting [41] is: source organism: Vaccinia virus Copenhagen.
The mark [42] stands for this setting: source organism: Burkholderia mallei ATCC 23344.
Where [43] appears, read: source organism: Influenza A virus (A/Yokohama/22/2002(H1N2)).
Where [44] appears, read: source organism: Influenza A virus (A/England/654/2007(H1N1)).

The IC50 is the concentration at which inhibition is half-maximal. As a reminder, the Kd is the concentration at which binding is half-saturated.

As for TLIDVCPI, the IC50 in experiment [1] (setting [34]) came out at 0.033 µM.

Turning to LKNDLLENLQ, in experiment [2] (source organism: Influenza A virus (A/Victoria/1968(H3N2))), the IC50 was at least 495 µM.

Regarding MFVSNRWFL, the values for the Kd in experiment [3] (setting [35]) and in experiment [4] (setting [35]) were 0.005 µM and 0.002 µM, respectively.

For the sequence LVRSETKQK, the IC50 in [2] (setting [36]) turned out to be 34.6 µM; in [5], 7.02 µM; in [6] (setting [36]), 5.02 µM.

Turning to LLALLSCLTI, the IC50 in [1] (source organism: Hepacivirus hominis) amounted to 0.385 µM.

Consider VLPSPACQLV, for which the IC50 in experiment [1] (source organism: Homo sapiens) was determined as 0.5 µM.

Consider TVILGVLLL, for which the IC50 in experiment [1] (source organism: Homo sapiens) was determined as 0.847 µM.

Regarding LESAIGLPM, the Kd in experiment [7] (source organism: Shigella flexneri 5 str. 8401) is 0.0072 µM.

In the case of NLGNLNVSI, in experiment [1] (source organism: Hepatitis B virus subtype ayw), the IC50 amounted to 0.076 µM.

With AIMEKNIML, the IC50 in experiment [1] (source organism: Influenza A virus (A/Alaska/6/1977(H3N2))) amounted to 0.104 µM.

In turn, HYGTEGQEF displayed a Kd in [8] (source organism: Escherichia coli APEC O1) of 0.0029 µM. That is a single-digit nanomolar value.

Sequence QYVLMPGKV had a Kd in experiment [8] (setting [37]) of 2.58 µM.

Take FSDLCNFLI: the Kd in experiment [9] (setting [38]), in experiment [10] (setting [38]), in experiment [11] (setting [38]), in [12] (setting [38]), in experiment [13] (setting [38]) and in experiment [14] (setting [38]) was at least 20 µM each time. Further, the Kd in [15] (setting [38]) is at least 20 µM; in experiment [16] (setting [38]), at least 20 µM; in [17] (setting [38]), at least 20 µM; in experiment [18] (setting [38]), at least 20 µM; in [19], 0.153 µM; in experiment [20] (setting [38]), 0.009 µM.

As for MENLMYALL, the equilibrium dissociation constant (Kd) in [7] (source organism: Bacillus anthracis str. A0488) was 0.0284 µM.

Turning to EPVVFSTSD, the IC50 in [2] (setting [39]) is at least 144 µM.

With AELFVAHYM, the figures for the Kd in [16] (setting [40]) and in [7] (setting [40]) were at least 20 µM and 0.0108 µM, respectively.

In experiment [7] (source organism: Escherichia coli 536), MEIKILHKQ had a dissociation constant Kd of at least 20 µM.

In the case of LPYPYSSSA, the Kd in experiment [21] (source organism: Shigella boydii CDC 3083-94) came out at 0.0796 µM.

VLLLWITAA: the IC50 in [1] (setting [34]) was 0.011 µM.

In the case of RAMACSALI, the Kd amounted to 0.0261 µM in experiment [14] (setting [37]), 2.97 µM in experiment [17] (setting [37]), 0.0129 µM in experiment [22] and 0.347 µM in [20] (setting [37]).

In experiment [2] (setting [39]), PSGSTSPRM gave a half-maximal inhibitory concentration (IC50) of at least 202 µM.

As to NPIVPSFDM, the IC50 in experiment [2] (source organism: Influenza A virus (A/Oklahoma/309/2006(H3N2))) is 1.23 µM.

With IVFYRSGTE, the half-maximal inhibitory concentration (IC50) was at least 223 µM in experiment [2] (setting [41]), at least 6580 µM in experiment [23] and at least 85.9 µM in experiment [6] (setting [41]).

On to PFFFGFSHF, for which the figures for the Kd in experiment [3] (setting [42]) and in experiment [4] (setting [42]) were 0.704 µM and 0.024 µM, respectively.

On to WTGMVDGWY, for which the Kd in [9] (setting [43]), in experiment [10] (setting [43]), in experiment [11] (setting [43]), in experiment [12] (setting [43]), in experiment [13] (setting [43]) and in experiment [24] was at least 20 µM throughout. In addition, the Kd in experiment [25] is 0.0103 µM; in experiment [14] (setting [43]), at least 20 µM; in experiment [15] (setting [43]), at least 20 µM; in [16] (setting [43]), at least 20 µM; in experiment [17] (setting [43]) it was at least 20 µM; in [18] (setting [43]), at least 20 µM. The Kd in experiment [26], in experiment [27], in [28], in [29], in [30] and in [31] was at least 20 µM throughout. In addition, the Kd in experiment [3] (setting [44]), in experiment [32], in experiment [4] (setting [44]) and in experiment [33] was at least 20 µM each time.

As for VPRYAFAM, the Kd in experiment [21] (source organism: Influenza A virus) is at most 0.001 µM.

In experiment [2] (source organism: Sudan ebolavirus), IPSATKRWG displayed an IC50 of 49.6 µM.

Turning to SLYNAIATL, the IC50 in experiment [1] (source organism: Human immunodeficiency virus 1) is 0.036 µM.
